Data reported in IntAct's records for PubMed 15507434.

B1: Microphthalmia-associated transcription factor (Homo sapiens), O75030 (parent)
chain: MQSESGIVPDFEVGEEFHEEPKTYYELKSQPLKSSSSAEHPGASKPPISSSSMTSRILLRQQLMREQMQEQERREQQQKLQAAQFMQQRVPVSQTPAINVSVPTTLPSATQVPMEVLKVQTHLENPTKYHIQQAQRQQVKQYLSTTLANKHANQVLSLPCPNQPGDHVMPPVPGSSAPNSPMAMLTLNSNCEKEGFYKFEEQNRAESECPGMNTHSRASCMQMDDVIDDIISLESSYNEEILGLMDPALQMANTLPVSGNLIDLYGNQGLPPPGLTISNSCPANLPNIKRELTACIFPTESEARALAKERQKKDNHNLIERRRRFNINDRIKELGTLIPKSNDPDMRWNKGTILKASVDYIRKLQREQQRAKELENRQKKLEHANRHLLLRIQELEMQARAHGLSLIPSTGLCSPDLVNRIIKQEPVLENCSQDLLQHHADLTCTTTLDLTDGTITFNNNLGTGTEANQAYSVPTKMGSKLEDILMDDTLSPVGVTDPLLSSVSPGASKTSSRRSSMSMEETEHTC

Variants of: B1
Settings: with tfeb_human TFEB

effect of a mutation on the interaction	Variant
with no effect	MQSESGIVPDFEVGEEFHEEPKTYYELKSQPLKSSSSAEHPGASKPPISSSSMTSRILLRQQLMREQMQEQERREQQQKLQAAQFMQQRVPVSQTPAINVSVPTTLPSATQVPMEVLKVQTHLENPTKYHIQQAQRQQVKQYLSTTLANKHANQVLSLPCPNQPGDHVMPPVPGSSAPNSPMAMLTLNSNCEKEGFYKFEEQNRAESECPGMNTHSRASCMQMDDVIDDIISLESSYNEEILGLMDPALQMANTLPVSGNLIDLYGNQGLPPPGLTISNSCPANLPNIRRELTACIFPTESEARALAKERQKKDNHNLIERRRRFNINDRIKELGTLIPKSNDPDMRWNKGTILKASVDYIRKLQREQQRAKELENRQKKLEHANRHLLLRIQELEMQARAHGLSLIPSTGLCSPDLVNRIIRQEPVLENCSQDLLQHHADLTCTTTLDLTDGTITFNNNLGTGTEANQAYSVPTKMGSKLEDILMDDTLSPVGVTDPLLSSVSPGASKTSSRRSSMSMEETEHTC [K289R;K423R]

Variants of: B1
Settings: with tfe3_human TFE3, P19532
Chain of tfe3_human TFE3, P19532 (P19532 whole entry): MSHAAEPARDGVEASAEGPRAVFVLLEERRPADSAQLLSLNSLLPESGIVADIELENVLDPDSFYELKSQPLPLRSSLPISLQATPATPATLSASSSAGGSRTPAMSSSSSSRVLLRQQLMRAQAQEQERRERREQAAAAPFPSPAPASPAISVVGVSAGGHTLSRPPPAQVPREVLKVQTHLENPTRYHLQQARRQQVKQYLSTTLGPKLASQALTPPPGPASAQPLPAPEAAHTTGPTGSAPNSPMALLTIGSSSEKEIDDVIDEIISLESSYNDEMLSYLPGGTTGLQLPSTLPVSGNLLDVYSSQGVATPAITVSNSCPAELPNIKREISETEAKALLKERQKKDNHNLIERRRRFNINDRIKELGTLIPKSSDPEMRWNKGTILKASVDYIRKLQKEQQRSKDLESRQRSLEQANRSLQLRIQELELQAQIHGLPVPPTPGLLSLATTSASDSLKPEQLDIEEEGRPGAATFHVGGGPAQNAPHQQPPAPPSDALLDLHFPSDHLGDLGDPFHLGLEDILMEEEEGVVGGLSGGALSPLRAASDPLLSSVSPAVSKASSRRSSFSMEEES

effect of a mutation on the interaction	Variant
with no effect	MQSESGIVPDFEVGEEFHEEPKTYYELKSQPLKSSSSAEHPGASKPPISSSSMTSRILLRQQLMREQMQEQERREQQQKLQAAQFMQQRVPVSQTPAINVSVPTTLPSATQVPMEVLKVQTHLENPTKYHIQQAQRQQVKQYLSTTLANKHANQVLSLPCPNQPGDHVMPPVPGSSAPNSPMAMLTLNSNCEKEGFYKFEEQNRAESECPGMNTHSRASCMQMDDVIDDIISLESSYNEEILGLMDPALQMANTLPVSGNLIDLYGNQGLPPPGLTISNSCPANLPNIRRELTACIFPTESEARALAKERQKKDNHNLIERRRRFNINDRIKELGTLIPKSNDPDMRWNKGTILKASVDYIRKLQREQQRAKELENRQKKLEHANRHLLLRIQELEMQARAHGLSLIPSTGLCSPDLVNRIIRQEPVLENCSQDLLQHHADLTCTTTLDLTDGTITFNNNLGTGTEANQAYSVPTKMGSKLEDILMDDTLSPVGVTDPLLSSVSPGASKTSSRRSSMSMEETEHTC [K289R;K423R]
